The test addresses Lysosomal Ras-associated protein 7a (RAB7A), recombinant mouse protein (mouse, UniProt P51150 1-207). The test is described as follows: SPR.

Sequence of Lysosomal Ras-associated protein 7a (RAB7A), recombinant mouse protein (P51150 whole entry): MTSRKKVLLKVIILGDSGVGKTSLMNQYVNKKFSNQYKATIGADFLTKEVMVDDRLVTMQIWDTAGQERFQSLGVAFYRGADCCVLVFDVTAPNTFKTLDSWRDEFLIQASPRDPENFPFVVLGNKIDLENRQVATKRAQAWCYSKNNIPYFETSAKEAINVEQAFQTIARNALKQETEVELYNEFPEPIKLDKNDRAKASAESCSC

B1: Sirtuin 5 (SIRT5), recombinant mouse protein (enzyme)
chain: SSNMADFRKCFANAKHIAIISGAGVSAESGVPTFRGAGGYWRKWQAQDLATPQAFARNPSQVWEFYHYRREVMRSKEPNPGHLAIAQCEARLRDQGRRVVVITQNIDELHRKAGTKNLLEIHGTLFKTRCTSCGTVAENYRSPICPALAGKGAPEPETQDARIPVDKLPRCEEAGCGGLLRPHVVWFGENLDPAILEEVDRELALCDLCLVVGTSSVVYPAAMFAPQVASRGVPVAEFNMETTPATDRFRFHFPGPCGKTLPEALAPHETERTS
Usually Kd stands for the constant that tells how readily two partners part at equilibrium. As to B1, the Kd is 31.8 nM.

Values taken from PMC11321632 (2024).
